Legend:
[1] = biological target: T1, His6-MgrA (Staphylococcus aureus NCTC8325) (UniProt Q2G0B1); assay: EMSA; settings: EMSA: 50 mM Tris-HCl pH 8.0, 200 mM NaCl, 25°C, 1 h, DNase I footprinting: 20 mM Tris-HCl pH 8.0, 100 mM NaCl, 5 mM MgCl2, 1 mM CaCl2, 2 mM DTT
T1 sequence: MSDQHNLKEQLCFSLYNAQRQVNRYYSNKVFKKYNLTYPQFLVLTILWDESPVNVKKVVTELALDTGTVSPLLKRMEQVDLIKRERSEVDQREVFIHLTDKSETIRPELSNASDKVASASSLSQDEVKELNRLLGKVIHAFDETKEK

[2] = biological target: T1, His6-MgrA (Staphylococcus aureus NCTC8325); assay: competition; settings: EMSA: 50 mM Tris-HCl pH 8.0, 200 mM NaCl, 25°C, 1 h, DNase I footprinting: 20 mM Tris-HCl pH 8.0, 100 mM NaCl, 5 mM MgCl2, 1 mM CaCl2, 2 mM DTT

ACTTAAATACGAATTCAGGCAACTTAATTGTGTTAAATACAGTTTTGAATGCCTAACTGTATTTCTTTTCTCTTTAAAATACAGTTAAGTACATTATAAGATGTTGTGCGGATAAACAAACTAATTGCATCAAATTTATTTTAAAATAACAACAACAAAACGTTAAGCGAATAACATTTCGGTGATTTAAAAGCTACGCACGTTTTTGTTATCTTCAAATTTAAATTTTAAGGAGTGTTTTCAATGGAAGGTT (double strand) [psmβ promoter fragment (Ppsmβ-biotin), 243 bp]
binding [1]: binds

ACTTAAATACGAATTCAGGCAACTTAATTGTGTTAAATACAGTTTTGAATGCCTAACTGTATTTCTTTTCTCTTTAAAATACAGTTAAGTACATTATAAGATGTTGTGCGGATAAACAAACTAATTGCATCAAATTTATTTTAAAATAACAACAACAAAACGTTAAGCGAATAACATTTCGGTGATTTAAAAGCTACGCACGTTTTTGTTATCTTCAAATTTAAATTTTAAGGAGTGTTTTCAATGGAAGGTT (double strand) [unlabeled psmβ promoter fragment (Ppsmβ), 243 bp]
binding [2]: binds

— article PMC6070752
